Numbering of substitutions follows the chain as printed.

To fix the notation:
B1: anti-PD-1 single-domain antibody clone 1D3, histidine-tagged, from E. coli (VHH)
VHH: QVQLVESGGGLVQPGGSLNLSCVASGSVFIIDVMAWYRQAPGKQRELVAQIINGGATYYADSVKGRFTISRDDTKTTLYLQMNSLKPDDTAVYYCSAEKFNPYRDSTHFWGQGTQVTVSS
notes: Alpaca VHH expressed in E. coli Rosetta (DE3) from pET32a+, purified on a Ni column; not shown: C-terminal histidine tag
B2: anti-PD-1 single-domain antibody clone 1A9, histidine-tagged, from E. coli (VHH)
VHH: B1 VHH with S27N, Y79N, S120A
notes: as for B1
B3: anti-PD-1 single-domain antibody clone 1H1, histidine-tagged, from E. coli (VHH)
VHH: B1 VHH with T57S, D73N, Y79F, D88A, S96N, H108N
notes: as for B1
B4: anti-PD-1 single-domain antibody clone 2D9, histidine-tagged, from E. coli (VHH)
VHH: B1 VHH with N19R, V23A, G55D, T57K, D73N, K99Q, H108Y
notes: as for B1
B5: anti-PD-1 single-domain antibody clone 2C4, histidine-tagged, from E. coli (VHH)
VHH: B1 VHH with Q13R, N19R, V23A, N53S, G55D, A56H, T57A, H108Y
notes: as for B1
B6: anti-PD-1 single-domain antibody clone 1A4, histidine-tagged, from E. coli (VHH)
VHH: B1 VHH with S27N, G55D, T57K, A60V, D73N, V92I, H108N
notes: as for B1
B7: anti-PD1 single-domain antibody clone 1D3, displayed on recombinant phage (VHH, not shown: large carriers)
VHH: B1 VHH
notes: Tested as phage supernatant in the screening ELISAs of Embodiment 2.2
B8: anti-PD1 single-domain antibody clone 2C4, displayed on recombinant phage (VHH, not shown: large carriers)
VHH: B1 VHH with Q13R, N19R, V23A, N53S, G55D, A56H, T57A, H108Y
notes: as for B7
B9: anti-PD1 single-domain antibody clone 1H1, displayed on recombinant phage (VHH, not shown: large carriers)
VHH: B1 VHH with T57S, D73N, Y79F, D88A, S96N, H108N
notes: as for B7
B10: anti-PD1 single-domain antibody clone 2D9, displayed on recombinant phage (VHH, not shown: large carriers)
VHH: B1 VHH with N19R, V23A, G55D, T57K, D73N, K99Q, H108Y
notes: as for B7
B11: anti-PD1 single-domain antibody clone 1A9, displayed on recombinant phage (VHH, not shown: large carriers)
VHH: B1 VHH with S27N, Y79N, S120A
notes: as for B7
B12: anti-PD1 single-domain antibody clone 1A4, displayed on recombinant phage (VHH, not shown: large carriers)
VHH: B1 VHH with S27N, G55D, T57K, A60V, D73N, V92I, H108N
notes: as for B7

One assay addresses T1, mouse mPD1-HSA fusion protein (mouse).
T1 construct: also called mouse PD-1
Kind of assay: ELISA, mPD1-HSA coated 200 ng/well, anti-his detection. The procedure:
(§1) Human hPD1-HSA, mouse mPD1-HSA (SEQ ID NO: 57) or HSA (purchased from Sigma) were coated on plates at 200 ng/well overnight at 4° C. and blocked with 5% skim milk at room temperature for 1 hour. Purified histidine-tagged anti-PD-1 single-domain antibody was diluted to 1 μg/mL and incubated at 37° C. for 1 hour with 100 μL per well. After washing with PBST 3 times, a mouse anti-his tag antibody (R&D Systems, Inc) diluted 1:5000 was added at 100 μl/well and incubated at room temperature for 1 hour. After washing with PBST, HRP-Goat anti-mouse IgG antibody (Thermo Scientific) diluted 1:10000 was added at 100 μl/well and incubated at room temperature for 1 hour. After washing with PBST, TMB color developing solution (Beijing ComWin Biotech Co., Ltd.) was added for color development and OD value was measured at 450 nm.
On the technique in general: ELISA stands for enzyme-linked immunosorbent assay.
For B1, the binding result is “no binding (tested: 1 µg/mL)”.
Consider B2, for which the binding result is recorded as “no binding (tested: 1 µg/mL)”.
For B3, the binding result is recorded as “no binding (tested: 1 µg/mL)”.
As for B4, the binding result was “no binding (tested: 1 µg/mL)”.
Regarding B5, the binding result is listed as “no binding (tested: 1 µg/mL)”.
On to B6, for which the binding result is recorded as “no binding (tested: 1 µg/mL)”.

In another assay the target is T2, HSA (purchased from Sigma) (human, UniProt P02768 25-609).
T2 construct: Control coat for the HSA part of hPD1-HSA; also called human serum albumin
Kind of assay: ELISA, HSA coated 200 ng/well, VHH 1 µg/mL, anti-his detection. On the procedure: as §1
For the molecule B1, the OD450 nm stood at 0.029 OD450 nm.
The molecule B2 showed an OD450 nm of 0.035 OD450 nm.
Molecule B3 had an OD450 nm of 0.031 OD450 nm.
For the molecule B4, the OD450 nm turned out to be 0.019 OD450 nm.
B5 yielded an OD450 nm of 0.022 OD450 nm.
Still for that read-out and setting: to B6 belongs 0.021 OD450 nm.

The target of another assay is fusion protein hPD1-Fc composed of the PD-1 extracellular domain sequence and human IgG1 FC (human). In words: competitive phage ELISA on coated hPD1-Fc; competitor Bio-hPDL1-HSA. On the procedure:
After washing 3 times with PBST, 100 μl of Streptavidin-HRP diluted 1:50000 (Jackson ImmunoResearch Inc) was added to each well and incubated at 37° C. for 1 hour. After washing 3 times with PBS, TMB color development working solution (Beijing ComWin Biotech Co., Ltd.) was added and incubated at room temperature for 5 minutes to develop color, then 1M sulfuric acid was added to terminate the reaction and OD450 nm reading was recorded. […] Competitive positive clones were selected for sequencing and duplicate sequences were removed.
As to B7, the binding result is listed as “binds”.
On to B8, for which the binding result is listed as “binds”.
The same measure, in the same setting: to B9 belongs “binds”; to B10, “binds”; to B11, “binds”.
Turning to B12, the binding result is “binds”.

Another assay addresses T3, fusion protein hPD1-HSA composed of a PD1 extracellular domain sequence and a human serum albumin sequence (human).
T3 construct: PD-1 extracellular domain fused to HSA; also called Human hPD1-HSA; human PD-1
Kind of assay: ELISA, hPD1-HSA coated 200 ng/well, VHH 1 µg/mL, anti-his detection. On the procedure:
as §1
For B1, the OD450 nm is 2.1 OD450 nm.
Molecule B2 returned an OD450 nm of 2.12 OD450 nm.
Molecule B3 gave an OD450 nm of 2.17 OD450 nm.
In turn, B4 yielded an OD450 nm of 2.11 OD450 nm.
On to B5, for which the OD450 nm stood at 2.14 OD450 nm.
Same read-out and setting: for B6 the value was 2.13 OD450 nm.

For the next assay, the target named is T4, Monkey RhPD1-HSA fusion protein (monkey).
T4 construct: also called monkey PD-1
Kind of assay: ELISA, RhPD1-HSA coated 200 ng/well, VHH 1 µg/mL, anti-his detection. The procedure: as §1, with “Monkey RhPD1-HSA fusion protein” for “Human hPD1-HSA, mouse mPD1-HSA”, “No. 30) was” for “NO: 57) or HSA (purchased from Sigma) were”, “anti-PD1” for “anti-PD-1”, “solution” for “solution (Beijing ComWin Biotech Co., Ltd.)”
As for B1, the OD450 nm was 2.1 OD450 nm.
In the case of B2, the OD450 nm was 2.02 OD450 nm.
Same read-out and setting: for B3 the value was 2.02 OD450 nm; for B4, 2.1 OD450 nm; for B5, 2.03 OD450 nm.
The molecule B6 showed an OD450 nm of 2 OD450 nm.
